Results on 167 variants are retold here after the RNAGym collection of RNA variant scans (doi:10.7554/elife.90254).

Sequences and labels used below:
B1: OR4K15 (parent)
chain: GUUAACGGUCAUAGGCCAUGGAAACUAGGAGCACCAUUUCGCUGCCAGUGAAGAAAUGAACAAAGAAAAUCUGGGCCAGGCAGGCAUCAAAAGAAAUAGUCUUGCGCUCAACCAGAAAGUCUGUAAUCAUUUUAAGGGUA

The variants in the data set derive from B1. Nature of the data set: self-cleavage, relative activity (ratio to wild type); higher = more cleavage; in vitro, sequencing; the parent is a self-cleaving ribozyme.
With G73A A129G, the self-cleavage turned out to be 0.07.
With A78C A98U, the self-cleavage came out at 0.58.
The same measure for G75A C81U: 0.21.
The same measure for C71A A117G: 0.35; for G74A U102C: 0.05.
U70C U120A: the self-cleavage was found to be 0.8.
The same measure for U70C U120C: 0.25; for G75U U87C: 0.11.
Regarding G74A C81A, the self-cleavage stood at 0.19.
For A78G C109A the value was 0.05; for C71U U131C, 0.25; for U72G A86G, 0.1.
The same measure for C71G: 0.24; for C71A: 0.61.
For C71U the value was 0.17; for G75A A117G, 0.07.
For C76U A117G, the self-cleavage came to 0.22.
For G74U A114G the value was 0.03; for A78G A111G, 0.03.
In the case of A78U A92G, the self-cleavage came to 0.29.
As to A78U A86G, the self-cleavage is 0.11.
The same measure for G75C A116G: 0.05.
The same measure for G74C A89G: 0.07; for A78U C105U: 0.03; for U72A U133C: 0.29.
The same measure for U72A U132A: 0.25.
Turning to U72A U132C, the self-cleavage was 0.23.
In the case of G75A A134G, the self-cleavage turned out to be 0.09.
As for A78U A94U, the self-cleavage is 0.4.
The same measure for A78U A94G: 0.33; for C71U A129G: 0.08.
For U72C C81A the value was 0.26.
The same measure for U72C A89U: 0.45; for C77U A129G: 1.77; for A78G U120C: 0.19.
For the variant A78C A111U, the self-cleavage came out at 0.01.
For U70C A140G the value was 0.38; for U70C A140U, 0.96.
The same measure for A78G U100G: 0.35; for U72C U131G: 0.28; for A78C U127C: 0.18.
For A78G A126G the value was 0.15; for U72A C105U, 0.04.
As to A78U A95U, the self-cleavage was found to be 0.2.
For the variant A78U A95G, the self-cleavage is 0.84.
The same measure for A78G A110C: 0.3; for A78G A110G: 0.11.
For U70C U139C the value was 0.7; for U70C U139A, 1.3; for U72A A89G, 0.36.
The same measure for A78G A90U: 0.31; for A78G A90C: 0.12.
In the case of U70C A135G, the self-cleavage was 1.14.
The same measure for U72C G84U: 0.35; for C77A U122C: 0.6; for G74A U100C: 0.45.
The same measure for U72G A94G: 0.09.
For U72A A125G the value was 0.05; for C77U U108C, 0.03.
Turning to A78G A114U, the self-cleavage came to 0.01.
For G74A U87C the value was 0.19; for A78U A96G, 0.38.
The same measure for U72G U103C: 0.07; for G73A A78G: 0.21; for U72A U120A: 0.17.
In the case of G73A A111G, the self-cleavage worked out at 0.02.
For C77U A89U the value was 2.73.
The same measure for A78U A89G: 0.27.
For G73A A89C the value was 0.14; for U72G U132A, 0.44.
In the case of G74A A116G, the self-cleavage came out at 0.12.
For U72C C76U the value was 0.22; for U72A C101U, 0.04; for C76A A94G, 0.06.
The same measure for U72C A78U: 0.15; for A78G A86U: 0.1.
For G73U U122C the value was 0.1; for A78G A117U, 0.1.
As to A78G A117C, the self-cleavage was 0.22.
The same measure for A78G U102A: 0.11; for A78G U122G: 0.15; for A78G U122C: 0.19.
For A78G G84A the value was 0.24.
The same measure for G75A U97C: 0.15; for U72G A118G: 0.22.
As to G74U A94G, the self-cleavage came to 0.41.
The same measure for C77U U103C: 2.12; for G75A C109U: 0.09.
For U72C A91C, the self-cleavage was found to be 0.27.
For U72C A116G the value was 0.07; for A78C A125G, 0.04; for G74A G115U, 0.03.
A78U A91G: the self-cleavage amounted to 0.11.
For A78C C128U the value was 0.29.
With U72C A92G, the self-cleavage worked out at 0.21.
Take A78U A140G: the self-cleavage was found to be 0.34.
The same measure for U72A U130C: 0.13; for U72C A125G: 0.07; for G75A U108A: 0.01.
Turning to G73A U131C, the self-cleavage worked out at 0.08.
For U70C C121U the value was 1.42; for U72G A90G, 0.39; for A78G U97C, 0.38.
For G75A U100C the value was 0.12.
For C76A A111G the value was 0.02; for G75C U103A, 0.01.
G74U C113U: the self-cleavage was found to be 0.02.
The same measure for U72C U97C: 0.1.
For C76G A82U the value was 0.22.
The same measure for A78G A95G: 0.26; for U72A A114U: 1.94.
For U72A A114C, the self-cleavage was 0.06.
For G74A C128U the value was 0.13; for U72A A98G, 0.04; for G74U A82G, 0.28.
Consider G74A U130C, for which the self-cleavage came to 0.11.
For U72C A86U the value was 0.14.
As to U72C A86G, the self-cleavage was determined as 0.14.
The same measure for A78G A129C: 0.11; for A78G A129G: 0.
Take C76U G123A: the self-cleavage came to 0.13.
As for U70G U127C, the self-cleavage turned out to be 0.57.
For A78G A125G the value was 0.1; for G75A A90G, 0.13; for A78U A126U, 0.35.
For U70C U132A the value was 0.38; for U70C U132C, 0.96; for C76G U122C, 0.15.
Regarding C71U U102C, the self-cleavage was found to be 0.66.
The same measure for U72A A96G: 0.2; for U72C C112U: 0.02.
The same measure for A78C A94G: 0.39; for C71U A114U: 0.06; for C71U A114G: 0.05.
The same measure for U72A A94G: 0.02; for U72C U103C: 0.09; for U72C U103A: 0.08.
In the case of U72C U103G, the self-cleavage is 0.01.
The same measure for U70C U127A: 0.95; for C77U U133C: 2.55; for A78G C105U: 0.03.
With U70C C88U, the self-cleavage turned out to be 1.54.
For A78U A125G the value was 0.03.
The same measure for U72A A78G: 0.05; for U72G U87C: 0.31.
For U70C C107U the value was 0.02.
As to A78C U102A, the self-cleavage is 0.02.
In the case of G73A C88U, the self-cleavage turned out to be 0.17.
For C76G C121U the value was 0.08; for C76U A94G, 0.13.
For U72G G74A the value was 0.18.
The same measure for U70C C101U: 0.12; for U70C C101G: 0.11.
In the case of A78G A89C, the self-cleavage is 0.43.
Turning to A78G A89U, the self-cleavage worked out at 0.24.
Take G74A U108A: the self-cleavage came to 0.03.
Turning to G73A U127C, the self-cleavage stood at 0.11.
For U72C U102C the value was 0.36; for A78U U87G, 0.09.
The same measure for A78U A129G: 0.18; for A78U A129C: 0.14; for G74U G104A: 0.02.
For U72A A110U the value was 0.29.
Turning to U72A A110G, the self-cleavage is 0.06.
For A78U G138A the value was 0.36; for G74U U132C, 0.18.
For G74U U132A the value was 0.3.
